Target: Alexa-647-labelled actin (UniProt P68135 1-377, Alexa-647 (Monolith NT Protein Labelling Kit RED-NHS))
Assay: MST

B1: recombinant HYC2 (GST-HYC2 or HYC2-6XHis) (natural protein)
chain: MDFSVKPSGGSPSPSSSTSSSTPHRFKSVTTPTATAAAVSGFSPSAAADRDPMHSWWESVSKQRSRILSLSSLLSGDSHFEDGDVTPISSLADSDRPALSLLSSRAAYSLISNSLCNPASGSGSDPLCQWLYETYLSSDPPLRLVVLSFFPLLVGMYLSRIHSSDSTSLPSLSGFEAVLLAIYAAEVKARAGKPILVHIPDLSQPSLYHTPRNGVDKSRDSNPTASVGVLSPQLEPQIAVKSTKRASIVGVGLQCYFKEISQMPAWSKLEFCKFSASWAGQDCDCKEKIDEDEDKVLALTNGFGDSSSFNGSSGRSLEIEEDFDRLAIRENEEQLSSNGGGGGVGRGVRIPLPWELFQPTLRILGHCLLSPLNTEDVKDAASNAVRSLYARASHDLNPQAILATRSLVNLDTSARTSGKTVAAETVNGSSNVNTPSKAKKPEILLASK
  Kd: 330 ± 80 nM

From article doi:10.1101/2024.09.06.611148 (bioRxiv, 2024)
